# Data taken from patent US20050136053A1 (DYAX, published 2005).
# B1: anti-Tie1 antibody G2, IgG (antibody, V domains shown)
# VH: EVQLLESGGGLVQPGGSLRLSCAASGFTFSSYKMGWVRQAPGRGLEWVSSIYPSGGWTHYADSVKGRFTISRDNSKNTLYLQMNSLRAEDTAVYYCARVLLHYFDYWGQGTLVTVSS
# VL: QSVLTQPASVSGSPGQSITISCTGTSSDVGGYKYVSWYQQHPGKAPKLIISDVNNRPSGVSDRFSGSKSGNTASLTISGLQAEDDGDYYCSSYASSSYTSSTTWVFGG
# notes: VL entry is lambda and stops within FR4
# B2: anti-Tie1 antibody s-B2, IgG (antibody, V domains shown)
# VH: EVQLLESGGGLVQPGGSLRLSCAASGFTFSIYGMAWVRQAPGKGLEWVSVISPSGGQTFYADSVKGRFTISRDNSKNTLYLQMNSLRAEDTAVYYCARVYYYGMDVWGQGTTVTVSS
# VL: DIQMTQSPATLSLSPGERATLSCRASQSVSSYLAWYQQKPGQAPRLLIYDASNRATGIPARFSGSGSETDFTLTISSLEPEDFAVYYCQQRSKWPRTFGQGTKLEIK
# notes: VH entry is a raw phagemid read that runs into CH1
# B3: anti-Tie1 antibody s-D11, IgG (antibody, V domains shown)
# VH: EVQLLESGGGLVQPGGSLRLSCAASGFTFSGYAMWWVRQAPGKGLEWVSSISPSGGATAYADSVKGRFTISRDNSKNTLYLQMNSLRAEDTAVYYCARDAGSYYWGWFDPWGQGTLVTVSS
# VL: DIQMTQSPATLSLSPGERATLSCRASQSISSYLAWYQQKPGQPPRLLIYDASSRVTGIPARFSGSGFGTDFTLTISSLEPEDFAVYYCLQRSSWPRTFGQGTKLEIK
# notes: VH entry is a raw phagemid read that runs into CH1; also called Di1
# Experiments:
# [1] = biological target: T1, endogenous human Tie1 (primary human endothelial cells, HUVEC, human tissue sections, SW480 cells) (human, UniProt P35590 25-1138); assay: immunofluorescence, HDMEC
# T1 construct: also called endogenous Tie1; HDMEC
# [2] = biological target: T2, V5-tagged full length human Tie1 expressed in COS1 cells (pcDNA3-Tie1-V5) (human, UniProt P35590 25-1138); assay: Western blot, Tie1-V5-transfected COS1 cells
# T2 construct: Cell lysates in Western blot and immunoprecipitation, fixed cells in immunofluorescence; also called Tie1-transfected; transfected Tie1
# Description: (§1) COS1 cells were transfected with pcDNA3-Tie1-V5 (1 μg DNA per 10 cm cell culture plate) using FUGENE 6 (Roche) according to manufacturer's instruction and incubated for 48 h before stimulation. For immunoprecipitation, Tie1 transfected cells and HMVEC cells were lysed in DOC-RIPA lysis buffer (50 mM Tris-HCl pH 8.0, 150 mM NaCl, 1% Triton-X-100, 0.1% SDS, 1% DOC, 10 mM EDTA) supplemented with aprotinin, leupeptin, PMSF and sodium vanadate. Immunoprecipitation was carried out from equal amount of cell lysates by incubating with polyclonal anti-human Tie1 antibodies (R&D), monoclonal anti-V5 antibodies (Invitrogen) or altogether 23 anti-Tie1 antibodies (1 μg/ml) for 1 to 2 h followed by incubation with protein G-Sepharose (Amersham Pharmacia Biotech AB) for 1 h. The immunoprecipitates were washed twice with PBS-T and twice with PBS, followed by elution with the Laemmli buffer and separation in 8% SDS-PAGE. The blots were probed with the 23 anti-Tie1 antibodies (5 μg/ml) and subsequently anti-human Fc antibodies conjugated with HRP.
# (§2) Next, to find out if the anti-Tie1 antibodies recognize Tie1 in living cells, those cells were studied by immunofluorescence staining.
# [3] = biological target: T1, endogenous human Tie1 (primary human …); assay: Western blot, HDMEC; Western blot, HDMEC
# Description: as §1, §2
# T2 sequence (P35590 25-1138): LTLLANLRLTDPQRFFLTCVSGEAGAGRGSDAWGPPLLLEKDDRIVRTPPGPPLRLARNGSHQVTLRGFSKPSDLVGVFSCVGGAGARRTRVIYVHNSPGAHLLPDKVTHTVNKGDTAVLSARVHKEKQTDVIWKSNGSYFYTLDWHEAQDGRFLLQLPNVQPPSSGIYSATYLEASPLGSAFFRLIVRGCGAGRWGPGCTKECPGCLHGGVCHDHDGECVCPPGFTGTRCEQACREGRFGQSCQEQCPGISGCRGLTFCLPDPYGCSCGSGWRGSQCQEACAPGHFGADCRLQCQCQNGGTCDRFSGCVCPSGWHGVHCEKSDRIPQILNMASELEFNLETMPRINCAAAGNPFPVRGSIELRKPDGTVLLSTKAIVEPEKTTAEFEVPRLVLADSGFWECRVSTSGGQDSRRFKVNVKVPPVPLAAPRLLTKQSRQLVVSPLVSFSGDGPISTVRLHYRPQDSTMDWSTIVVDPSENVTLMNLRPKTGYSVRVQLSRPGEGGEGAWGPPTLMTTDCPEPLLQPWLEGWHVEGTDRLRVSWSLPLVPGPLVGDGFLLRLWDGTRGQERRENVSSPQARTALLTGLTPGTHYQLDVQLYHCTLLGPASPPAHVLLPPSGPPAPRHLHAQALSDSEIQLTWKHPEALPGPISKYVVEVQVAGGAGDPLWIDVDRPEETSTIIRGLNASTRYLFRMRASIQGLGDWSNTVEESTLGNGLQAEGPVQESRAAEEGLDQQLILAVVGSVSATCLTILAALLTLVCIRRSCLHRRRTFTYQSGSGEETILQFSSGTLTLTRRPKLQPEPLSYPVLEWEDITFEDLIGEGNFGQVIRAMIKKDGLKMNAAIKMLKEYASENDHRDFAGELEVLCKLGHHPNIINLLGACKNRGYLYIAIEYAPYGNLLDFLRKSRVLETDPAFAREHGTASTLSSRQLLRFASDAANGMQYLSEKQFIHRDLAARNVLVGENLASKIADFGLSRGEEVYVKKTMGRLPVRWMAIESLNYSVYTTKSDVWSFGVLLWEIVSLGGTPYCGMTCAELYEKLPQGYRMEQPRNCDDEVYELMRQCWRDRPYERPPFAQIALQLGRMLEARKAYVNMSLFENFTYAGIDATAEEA
# T1 sequence (P35590 25-1138): as above
binder,measurement,setting,value
B1,binding result,[1],binds
same,binding result,[2],binds
B2,binding result,[3],binds
same,binding result,[2],binds
B3,binding result,[3],binds
same,binding result,[2],binds
